The text below walks through data of the RNAGym collection of RNA variant scans (doi:10.1073/pnas.2313332121).

First the molecules themselves.
B1: TPR t1 (parent)
chain: GACCAAUCUGCCCUCAGAGCUCGAGAACAUCUUCGGAUGCAGAGGAGGCAGGCUUCGGUGGCGCGAUAGCGCCAACGUCCUCAACCUCCAAUGCAUCCCACCACAUGAUGAUGCCUGAAGAGCCUUGGUUUUUUG

The variants in this series derive from B1. Briefly: polymerase ribozyme fitness, log enrichment relative to wild type (log ratio); higher = more active; in vitro selection for triplet polymerase activity. In short, it runs like this:
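Each subunit of a heterodimeric triplet polymerase ribozyme was mutagenized into a library by PCR, transcribed, and subjected to one round of in vitro selection, run in triplicate. Libraries were annealed with a biotinylated primer, the partner subunit and triplets, incubated frozen at −7 °C, and extended constructs were gel-excised, captured on streptavidin beads and recovered by RT-PCR. Input and output libraries were sequenced on Illumina, keeping genotypes with ≥10 input reads and ≥1 read per output. Fitness is log base 2 of genotype enrichment divided by wild-type enrichment, from inverse-variance-weighted replicate averages.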
As to GACCAAUCUGCCAUCAGAGCUCGAGAACAUCUUCGGAUGCAGAGGAGGCAGGCUUCGGUGGCGCGAUAGCGUCAACGUCCUCAACCUCCAAUGCAUCCCACCACAUGAUGAUGCCUGAAGAGCCUUGGUUUUUUG, the “polymerase ribozyme fitness (log ratio)” value is -1.96.
For the variant GACCAAUCUGCCAUCAGAGCUCGAGAACAUCUUCGGAUGAAGAGGAGGCAGGCUUCGGUGGCGCGAUAGCGCCAACGUCCUCAACCUCCAAUGCAUCCCACCACAUGAUGAUGCCUGAAGAGCCUUGGUUUUUUG, the “polymerase ribozyme fitness (log ratio)” value is -2.4.
Regarding GACCAAUCUGCCAUCAGAGUUCGAGAACAUCUUCGGAUGCAUAAGAGGCAGGCUUCGGUGGCGCGAUAGCGCCAACGUCCUCAACCUCCAAUGCAUCCCACUACAUGAUGAUGCCUGAAGAGCCUUCGUUUUUUG, the “polymerase ribozyme fitness (log ratio)” value was -6.04.
The value for GACCAAUCUGCCAUCAGAGCUCGAGAACAUCUUCGGAUGCAGAGGAGGCAGGCUUCGGUGGCGCGAUAGGGCCAACGUCCUCAACCUCCAAUGCAUCCCACCACAUGAUGAUGCCUGAAGAGACUUGGUUUUUUG was -2.2.
On to GACCAAUCUGCCAUCAGAGCUCGAGAACAUCUUCGGAUGCAGAGGAGGCUGGCUUCGGUGGCGCGAUAGCGACAACGUCCUCAACCUCCAAUGCAUCCCACCACAUGAUGAUGCCUGAAGAGCCUUGGUUUUUUG, for which the “polymerase ribozyme fitness (log ratio)” value was -3.71.
Turning to GACCAAUCUGCCAUCAGAGCUCGAGAACAUCUUCGGAUGCAGAGGAGGCAGGCUUUGGUGGCGCGAUAGCGCCAACGUCCUCAACCUCCAAUGCAUCCCACCACAUGAUGAUGCCUGAAGAGCCUUGGUUUUUUG, the “polymerase ribozyme fitness (log ratio)” value was -1.43.
As for GACCAAUCUGCCAUCAGAGCUCGAGAACAUCUUCGGAUGCAGAGGAGGCAGGCUUCGGUGGCGCGAUAGCGCCAACGUCCUCAACCUCCAAUGCAUCCCACCACAUGAUGAUGCCUGAAGAGCUUUGGUUUAUUG, the figure is -1.61; as for GACCAAUCUGCCAUCAGAGCUCGAGAACAUCUUCGGAUGCAGAGGAGGCAGGCUUCGGUGGCGCGAUAGCGGCAACGUCCUCAACCUCCAAUGAAUCCCACCACAUGAUGAUGCCUGAAGAGCAUUGGUUUUUUG, 0.278; as for GACCAAUCUGCCAUCAGAGCUCGAGAACAUCUUCGGAUGCAGCAGAGGCAGGCUUCGGUGGCGCGAUAGCGUCAAUGUCCUCAACCUCCAAUGCAUCCCACCACAUGAUGAUGCCUGAAGAGCCUAGGUUUUUUG, -5.92.
As for GACCAAUCUGCCAUCAGAGCUCGAGAACAUCUUCGGAUGCAGAGGAGGCAGGCUUCGGUGGCGCGAUAGCGCCAACGUCCUCAACAUCCAAUGCAUCCCACCACAUGAUGAUGCCUGAAGAGCCUUGGUUUUUUG, the figure is -3.09.
Turning to GACCAAUCUGCCAUUAGAGCUCGAGAACAUCUUCGGAUGCAGAGGACGCAGGCUUCGGUGGCGCGAUAGCGCCAACGUCCUCAACCUCCAAUGCAUCCCACCACAUGAUGAUGACUGAAGAGCCUUGGUCUUUUG, the “polymerase ribozyme fitness (log ratio)” value was -6.45.
As for GACCAAUCUGCCAUCAGAGCUCGAGACCAUCUUCGGAUGCAGAGGAGGCAGGCUUCGGUGGCGCGAUAGCGCCAACGUCCUCAACCUCCAAUGCAUCCCACCACAUGAUGAUGCCUGAAGAGCCUUGGAUUUUUG, the figure is -5.35; as for GACCAAUCUGCCAUCAGAGCUCGAGAACAUCUUCGGAUGCAGAGGAGGCAGGCUUCGGUGGCGCGAUAGCGCCAUCGUCCUCAACCUCCAAUGCAUCCCACCACAUGAUGAUGCCUGAAGAGCCAUGGUUUUUUG, -2.12; as for GACCAAUCUGCCAUCAGAGCUCGAGAACAUCUUCGGAUGCAGAGGAGGCAGGCUUCGGUGGCGCGAUAGCGCCAACGUCCUCAACCUCCAAUGCAUCCCACCACAUGAUGUUGCCUGAAGAGCCUUGGUUUUUUG, -4.17.
Take GACCAAUCUGCCAUCAGAGCUCGAGAACAUCUUCGGAUGCAGAGGAGGCAGGCUUCGGUGGCGCGAUAGCGCCAACGUCCUCAACCUCCAAUGCAUCCCACCACAUGAUGCUGCCUGAAGAGCCUUGGUUUUUUG: the “polymerase ribozyme fitness (log ratio)” value was -1.39.
With GACCAAUCUGCCAUCAGAGCUCGAGAACAUCUUCGGAUGCAGAGGAGGCAGGCUUCGGUGGCGCGAUAGCGCCAACGUCCUCAACCUCCAAUGCAUCCCACCACAUGAUGAUGCCUGAAGAGUCUUGGUUUUUUG, the “polymerase ribozyme fitness (log ratio)” value came to 0.793.
For the variant GACCAAUCUGCCAUCAGAGCUCGAGAACAUCUUCGGAUGCAGAGGAGGCAGGCUUCGGUGGCGCGAUAGCGCCAACGUCCUCAACCUCCAAUGCAUCCCACCACAUGAUGAUGCCUGAAGAGGCUUGGUUUUUUG, the “polymerase ribozyme fitness (log ratio)” value was -0.0402.
For GACCAAUCUGCCAUCAGAGCUCGAGAACAUCUUCGGCUGCAGAGGAGGCAGGCUUCGGUGGCGCGAUAGCGCCAACGUCCUCAACCUCCAAUGCAUCCCACCACAUGAUGAUGCCUGUAGAGCCUUGGUUUUUUG, the “polymerase ribozyme fitness (log ratio)” value is -1.38.
Regarding GACCAAUCUGCCAUCAGAGCUCGAGAACAUCUUCGGAUGCAGAGGUGGCAGGCUUCGGUGGCGCGAUAGCGCCAACGUCCUCAACCUCCAAUGCAUCCCACCACAUGAUGAUGCCUGAAGAGCCUUGGUUUUUUG, the “polymerase ribozyme fitness (log ratio)” value is -3.23.
Regarding GACCAAUCUGCCAUCAGAGUUCGAGAACAUCUUCGGAUGCAGAGGAGGCAGGCUUCGGUGGCGCGAUAGCGUCAACGUCCUCAACCUCCAAUGCAUCCCACCACAUGAUGAUGCCUGAAGAGCCUUGGUUUUUUG, the “polymerase ribozyme fitness (log ratio)” value was -2.59.
Regarding GACCAAUCUGCCAUCAGAGCUCGAGAACAUCUUCGGAUGCAGAGGAGGCAGGCUUCGGUGGUGCGAUAGCGCCAACGUCCUCAACCUCAAAUGCAUCCCACCACAUGAUGAUGCCUGAAGAGCCUUGGUUUUUUG, the “polymerase ribozyme fitness (log ratio)” value is -3.31.
